Experimental data taken from the nanobody polyreactivity screen of Harvey et al. (2022).

Experiment: yeast display, Sf9 membrane polyspecificity reagent, FACS + sequencing; frameworks hold sequencing errors
Procedure, shortened: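 In a synthetic yeast display library (Saccharomyces cerevisiae BJ5465), nanobody expression was induced with galactose for 36–48 hours. FACS gates were set low and high (top ~1%) using anti-HA fluorescence for expression and streptavidin fluorescence for binding of the Sf9 membrane reagent. Each polyreactivity label is drawn from the gate of origin.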

Row | Sequence | polyreactivity (PSR sort gate)
1 | QVQLVESGGGLVQAGGSLRLSCAASGITFYTYTMGWYRQAPGKERELVAAISRSSGRTYYADSVKGRFTISRDNAKNTVYLQMNSLKPEDTAVYYCAAYAVESYKYDYWGQGTQVTVSS | high polyreactivity
2 | QVQLVESGGGLVQAGGSLRLSCAASGITFYVNAMGWYRKAPGKERELVAGITLSGDSTYYADSVKGRFTISRDNAKNTVYLQMNSLKPEDTAVYYCAVEGGLWWPYTYYYWGQGTQVTVSS | high polyreactivity
3 | QVQLVESGGGLVQAGGSLRLSCAASGITFYVYAMGWYRPAPGKVRELVAAINYDSGSTYYADSVKGRFTISRDNAKNTVYLQMNSLKPEDTAVYYCATDGVNPFYAYDYWGQGTQVTVSS | low polyreactivity
4 | QVQLVESGGGLVQAGGSLRLSCAASGITFYWYTMGWYRQAPGKERELVADIEGDGGSTYYADSVKGRFTISRDNAKNTVYLQMNSLKPEDTAVYYCAAQVWPWGYDYWGQGTQVTVSS | high polyreactivity
5 | QVQLVESGGGLVQAGGSLRLSCAASGITFYYNAMGWYRQAPGKERELVAAIRSAGSTYYADSVKGRFTISRDNAKNTVYLQMNSLKPEDTAVYYCAAEDGTTDQVRVYWIMDYWGQGTQVTVSS | low polyreactivity
6 | QVQLVESGGGLVQAGGSLRLSCAASGITFYYYAMGWYRQAPGKERELVAAISDNGSRTYYADSVKGRFTISRDNAKNTVYLQMNSLKPEDTAVYYCAAEGSYGYDYWGQGTQVTVSS | high polyreactivity
7 | QVQLVESGGGLVQAGGSLRLSCAASGITFYYYAMGWYRQAPGKERELVAAISRSGGRTYYADSVKGRFTISRDNAKNTVYLQMNSLNPEDTAVYYCAAVRYQGGDSSIEYDYWGQGTQVTLSS | high polyreactivity
8 | QVQLVESGGGLVQAGGSLRLSCAASGITFYYYTMGWYRQAPGKERELVAGITYRGGRTYYADSVKGRFTISRDNAKNTVYLQMNSLKPEDTAVYYCAADDLGWWFYSGGEDYYYWGQGTQVTVSS | low polyreactivity
9 | QVQLVESGGGLVQAGGSLRLSCAASGITIFGYAMGWYRQAPGKERELVAAINYSGDSTYYADSVKGRFTISRDNAKNTVYLQMNSVKPEDTAVYYCAATRSYRQPGPKYKSYYYLYYYWGQGTQVTVSS | high polyreactivity
10 | QVQLVESGGGLVQAGGSLRLSCAASGITIFRYALGWSRQAPGKERELVAAISSSGGSTYYADSVKGRFTISRDNAKNTVYLQMNSLKPEDTAVYYCAAAHGYRYYWGQGTQVTVSS | high polyreactivity
11 | QVQLVESGGGLVQAGGSLRLSCAASGITIGRYAMGWYRPAPGKERELVAAISSTGGRTYYADSVKGRFTISRDNAKNTVYLQMNSLKPEDTAVYYCAAGRRRPFGRNDYWGQGTQVTVSS | high polyreactivity
12 | QVQLVESGGGLVQAGGSLRLSCAASGITIKRYAIGWYRQAPGKEREFVATISQSGTSTYYADSVKGRFTISRDNAMNTVYLQMNSLKPEDTAVYYCAADYIGYWYGYYSWGQGTQVTVSS | low polyreactivity
13 | QVQLVESGGGLVQAGGSLRLSCAASGITIKRYAMVWYSQAHGKEREFVATISQSGTSTYYADSVKGRFTISRDNAKNTVYLQMNSLKPEDTAVYYCAADYIGYWYGYYSWGQGTKVTVSS | low polyreactivity
14 | QVQLVESGGGLVQAGGSLRLSCAASGITIPVYMGWYRQPPGKERELVASISTIGGTTYYADSVKGRFTITRDNAKNTVYLQMNRLKPEDSAVYYCAADHPWSWYDYWGQGTQVTVSW | low polyreactivity
15 | QVQLVESGGGLVQAGGSLRLSCAASGITIRRYAMGWYRQAPGKERELVAAITYSGGGSTYYADSVKGRFTISRDNAKNTVYLQMNSLKPEDTAVYYCAAGWYPWGYYSGYISYEYWGQGTQVTVSS | high polyreactivity
16 | QVQLVESGGGLVQAGGSLRLSCAASGITIRYNAMGWYRQAPGKERELVAAISRGGDRTYYADSVKGRFTISRDNAKNTVYLQMNSLKPEDTAVYYCAADWSEKYEYWGQGTQVTVSS | high polyreactivity
17 | QVQLVESGGGLVQAGGSLRLSCAASGITISPNAMGWYRQAPGKERELVAAIDWSGDRTYYADSVKGRFTISRDNAKNTVYLQINSLKPEDTAVYYCNVVRRSPGDYSYYYWGQGTQVTVSS | low polyreactivity
18 | QVQLVESGGGLVQAGGSLRLSCAASGITISVNDMGWYRQAPGKERELVAAISSGDSTNYADSVKGRFTISRDNAKNTVYLQMNSLKPEDTAVYYCAALEGSLTGWQTYDYWGQGTQVSVSS | low polyreactivity
19 | QVQLVESGGGLVQAGGSLRLSCAASGITIVNYVMGWYRQAPGKERELVAAISIGGGTYYADSVKGRFTISRDNAKNTVYLQRNSLKPEDTAVYYCNATFGGLSFYIGVYVTGYDYWGQGTQVTVSS | low polyreactivity
20 | QVQLVESGGGLVQAGGSLRLSCAASGITIWWYAMGWYRQAPGKERELLAAITGGGSTNYADSVKGRFTISRDNAKNTVYLQMNSLKPEDTAVYYCAATGSPARNWDTVTGYYYWGQGTQVTVSS | low polyreactivity
21 | QVQLVESGGGLVQAGGSLRLSCAASGITIYAYAMGWSRQAPGKERELVAAINWSGGRTFYADSVKGRFTISRDNAKNTDYLQMNSLKPEDTAVYYCAAAYTRSYSWARGYDYWGQGTQVTVSS | high polyreactivity
22 | QVQLVESGGGLVQAGGSLRLSCAASGITIYRYAMGWYRQAPGKERELVATITWSGGSTYYADSVKGRFTISRDNAKNTVYLQMNSLKPEDTALYYCAAYSPYIYQAYRYDYWGQGTQVTVSS | low polyreactivity

Row | Sequence | polyreactivity (PSR sort gate)
23 | QVQLVESGGGLVQAGGSLRLSCAASGITLDRYAMGWYRQAPGKERELVAAISRSTTSTYYADSVKGRFTISRDNAKNTVYLQMNSLKREDTAVYYCATRTYRVDPEYGYWGQGTQVTVSS | high polyreactivity
24 | QVQLVESGGGLVQAGGSLRLSCAASGITLDVNAMGWYRQAPGKERELVADITWSDDSTYYADSVKGRFTISRDNAKNTVYLQMNSLKPEDTAVYYCAADVSVSFHPRGYDYWGQGTQVTVSS | low polyreactivity
25 | QVQLVESGGGLVQAGGSLRLSCAASGITLGRYAMGWYRQAPGKERELVAAISRSGGSTYYADSVKGRFTISRDNEKNTVYLLMNSLKPEDTAVYYCNRRVYPTSDYDYWGQGTQVTVSS | high polyreactivity
26 | QVQLVESGGGLVQAGGSLRLSCAASGITLPAYTMGWYRQAPGKERELVAAISWGGTSTYYADSVKGRFTISRDNAKNTVYLQMNSLKPEDTAVYYCNKAYATYPGYDYWGQGTQVTLSS | high polyreactivity
27 | QVQLVESGGGLVQAGGSLRLSCAASGITLPYYAMGWYRQAPGKERELVAGISSRGGSTYYADSVKGRFTISRDNAKNTVYLQMNSLKPEDTAVYYCAAKVASTRLGPAYGYWGQGTQVTVSS | high polyreactivity
28 | QVQLVESGGGLVQAGGSLRLSCAASGITLSRNAMGWYRQAPGKERELVAAITWRTDRTYYADSVKGRFTISRDNAKNTVYLQMNSLKPEDTAVYYCAARTTVSSARYDYWGQGTQVTVSS | high polyreactivity
29 | QVQLVESGGGLVQAGGSLRLSCAASGITLSWYAMGWYRQAPGKERELVAGISGRGGRTYYADSVKGRFTLSRDNAKNTVYLQMNSLKPEDTAVYYCAADSPGYRSYDYWGQGTQVTVSS | high polyreactivity
30 | QVQLVESGGGLVQAGGSLRLSCAASGITLWQYAMGWYRQAPGKERELVAGITDTGDSTYYADSVKGRVTISRDNAKNTVYLQMNSLKPEDTAVYYCAVPRSALLRAPYELYSWGQGTQVTVSS | low polyreactivity
31 | QVQLVESGGGLVQAGGSLRLSCAASGITLYDNAMGWYRQAPGKERELVAAINVNDVSTYYADSVKGRFTISRDNAKNTVYLQMNSLKPEDTAVYYCAADSLYYGIGYWVVRYDYWGQGTQVTVSS | low polyreactivity
32 | QVQLVESGGGLVQAGGSLRLSCAASGITLYFYAMGWYRQAPWKERELVAAISRGGRTYYADSVKGRFTISRDNAKNTVYLQMNSLKPEDTAVYYCAARYTSEYSAFDYWGQGTQVTVSS | low polyreactivity
33 | QVQLVESGGGLVQAGGSLRLSCAASGITLYGNVMGWYRQAPGKERELVAAISGGSTFYADSVKGRFTISRDNAKNTVYLQMNSLKPEDTAVYYCSAEGYGYGSNVPYYYWGQGTQVTVSS | low polyreactivity
34 | QVQLVESGGGLVQAGGSLRLSCAASGITLYRYAMGCYRQAPGKERELVADISSGGGTTYYADSVKGRFTISRDNAKNTVYLQMNSLKPEDTAVYYCAADYGFRYPLYDYWGQGTQVTVSS | low polyreactivity
35 | QVQLVESGGGLVQAGGSLRLSCAASGITLYRYAMGWYRQAPGKERELVADISSGGGTTYYADSVKGRFTISRDNAKNTVYLQMNSLKPEDTAVYYCAADYGFRYPLYDYWGQGTQVTVSS | low polyreactivity
36 | QVQLVESGGGLVQAGGSLRLSCAASGITLYWYAMGWYRPAPGKERELVAAISRRGGTTYYADSVKGRFTISRDNAKNTVYLQMNSLKPEDTAVYYCAKAPDTQTSWSRQEGNYWGQGTQVTVSS | low polyreactivity
37 | QVQLVESGGGLVQAGGSLRLSCAASGITSDQNAMGWYRQAPGKERELVAAISWSGGSTYYADSVKGRFTISRDNAKNTVYLQMNSLKPEDTAVYYCAADIYTAYYEFDYWGQGTQVTVSS | low polyreactivity
38 | QVQLVESGGGLVQAGGSLRLSCAASGITSGNNALGWYRQAPGKERELVAALSWTGGSTYYADSVKGRFTISRDNAKNTVYLQMNSLKPEDTAVYYCAAKGLRYRDIDYDYWGQGTQVTVSS | low polyreactivity
39 | QVQLVESGGGLVQAGGSLRLSCAASGITSRFNAMGWYRQAPGKERELVAAISSRGTSTYYADSVKGRFTISRDNAKNTVYLQMNTLKPEDTAVYYCAVSQRAPKFPGDYWGQGPQVTVSS | high polyreactivity
40 | QVQLVESGGGLVQAGGSLRLSCAASGITSRQYAMGWYRQAPGKERELVAAISFSGGRTYYADSVKGRFTISRDNAKNTVYLQMNSLKPEVTAVYYCATRNRYSPRDYWGQGTQVTVSS | high polyreactivity
41 | QVQLVESGGGLVQAGGSLRLSCAASGITSTVYAMGWYRQAPGKERELVAGISWSTSSTYYADSVKGRFTISRDNAKNTVYVQMNSLKPEDTAVYYCAKAGAYKYGYWGQGTQVTVSS | high polyreactivity
42 | QVQLVESGGGLVQAGGSLRLSCAASGITSYGYAMGWYIQAPGKERELVAAISRSGGTTYYADSVKGRFTISRDNAKNTVYLQMNSLKPEDTAVYYCALGKSHRGGGVSKFNYWGQGTQVTVSS | low polyreactivity
43 | QVQLVESGGGLVQAGGSLRLSCAASGITSYYYTMGWYRQAPGKERELVAAITSGGSTYYADSVKGRFTISRDNAKNTVYLQMNSLKPEDNAVYYCTADNPRYRGSKYGPYDDYNYWGQGTQVTVSS | low polyreactivity
